Experimental data published in publication PMC3458557.

T1: GST-Rho-N-Strep (RHON1 C-terminal Rho-N domain) (Arabidopsis thaliana, UniProt Q94K75 362-401)
T1 chain: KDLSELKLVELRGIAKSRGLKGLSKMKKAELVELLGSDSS


Molecular target: T1, GST-Rho-N-Strep (RHON1 C-terminal Rho-N …)
Test: EMSA

Row | Binder | binding result
1 | UUCUAGUACAACUAUUGCAGUAGAAUGACAA (ssRNA) [petA 5' UTR 31-mer] | no binding
2 | petB 3' UTR (ssRNA) RNA: GACUGAAGCUAACUUUGGUUGGUUAAUCCGAUCAGUUCAUCGAUGGUCGGCAAGUAUGAUGGUCCUAAUG | binds
3 | petB 5' UTR (ssRNA) RNA: GGUAGUUCGACCGCGAAAUUUUUUUCUGCAUUGUAUAUUUCCGGAAUAUGAGUGUGUGACUUGUUAGAAU | binds
4 | 23S-4.5Sa dsRNA (dsRNA) RNA 1: UUCCUCUAUUUGUUCGAUAGGGGAGAUUCCGACUUCCCCAGAGCCUCCGGUAGCACAGCCGAGACAGCAACGGGUUCUCCGCCCCUGCGGGGAUG RNA 2: CAUCCCCGCAGGGGCGGAGAACCCGUUGCUGUCUCGGCUGUGCUACCGGAGGCUCUGGGGAAGUCGGAAUCUCCCCUAUCGAACAAAUAGAGGAA | no binding
